Laboratory results: patent publication US20250376517A1 (AKESO BIOPHARMA, published 2025)
Substitutions are numbered along the chain they refer to. Each block holds one binder with its values, some of them ahead of it.

Key:
[1] = target: T1, human Claudin18.2 (CLDN18.2) on the surface of CHO-K1-CLDN18.2 cells (human, UniProt P56856-2 1-261); experiment: cell ELISA on CHO-K1-CLDN18.2 cells; antibody 1.000 µg/mL
T1 construct: whole, on cells; Membrane protein overexpressed on CHO-K1 cells; also called hCLDN18.2; antigen on the surface of CHO-K1-CLDN18.2 cell
Method: (§1) CHO-K1-CLDN18.2 cells (Chinese hamster ovary cells CHO-K1 overexpressing CLDN18.2, CHO-K1 purchased from Cell Resource Center, Institute of Basic Medical Sciences, Chinese Academy of Medical Sciences, Cat. No.: 3111C0001CCC000004) were plated on a cell plate (Corning, 3599) at 2×10⁴ cells/well and cultured overnight at 5% CO₂ and 37° C., and then the cell plate in which the cells were incubated was washed once with PBST and blocked for 2 h at 37° C. using PBST containing 1% BSA as a blocking solution. After blocking, the plate was washed 3 times with PBST. The ELISA plate containing the test antibodies was incubated at 37° C. for 30 min and then washed 3 times with PBST. […] Then, the plate was incubated at 37° C. for 30 min. After incubation, the plate was washed 4 times with PBST, TMB (Neogen, 308177) was added for color developing in the dark for 5 min, and then a stop solution was added to terminate the chromogenic reaction. The ELISA plate was put into a microplate reader immediately, and the OD value of each well in the ELISA plate was read at 450 nm. The data were analyzed and processed by SoftMax Pro 6.2.1.

[2] = target: T1, human Claudin18.2 (CLDN18.2) on the …; experiment: cell ELISA on CHO-K1-CLDN18.2 cells; antibody 0.333 µg/mL
Method: as §1

[3] = target: T1, human Claudin18.2 (CLDN18.2) on the …; experiment: cell ELISA on CHO-K1-CLDN18.2 cells
Method: as §1

[4] = target: T1, human Claudin18.2 (CLDN18.2) on the …; experiment: cell ELISA on CHO-K1-CLDN18.2 cells; antibody 0.037 µg/mL
Method: as §1

[5] = target: T1, human Claudin18.2 (CLDN18.2) on the …; experiment: cell ELISA on CHO-K1-CLDN18.2 cells; antibody 3 µg/mL
Method: as §1

[6] = target: T1, human Claudin18.2 (CLDN18.2) on the …; experiment: cell ELISA on CHO-K1-CLDN18.2 cells; antibody 0 µg/mL (background, no antibody)
Method: as §1

[7] = target: T1, human Claudin18.2 (CLDN18.2) on the …; experiment: cell ELISA on CHO-K1-CLDN18.2 cells; antibody 0.004 µg/mL
Method: as §1

[8] = target: T1, human Claudin18.2 (CLDN18.2) on the …; experiment: cell ELISA on CHO-K1-CLDN18.2 cells; antibody 0.111 µg/mL
Method: as §1

[9] = target: T1, human Claudin18.2 (CLDN18.2) on the …; experiment: flow cytometry (FACS) on CHO-K1-CLDN18.2 cells
Method: CHO-K1-CLDN18.2 cells in logarithmic growth phase were collected and transferred to a 1.5 mL EP tube at 3×10⁵ cells/well, and then 1% PBSA was added. The mixture was centrifuged at 1000× g for 5 min, followed by removal of the supernatant. […] 1000 μL of 1% PBSA was added, and the mixture was centrifuged at 1000×g for 5 min, followed by removal of the supernatant and washing twice with 1% PBSA. […] The mixture was resuspended and well mixed, and incubated on ice for 40 min in the dark. 1000 μL of 1% PBSA was added, and the mixture was centrifuged at 1000×g for 5 min, followed by removal of the supernatant and washing twice with 1% PBSA. 200 μL of 1% PBSA was added to resuspend the cell pellets, and the mixture was transferred to a flow cytometry tube for FACSCalibur assay.

[10] = target: T1, human Claudin18.2 (CLDN18.2) on the …; experiment: cell ELISA on CHO-K1-CLDN18.2 cells; antibody 0.012 µg/mL
Method: as §1

[11] = target: T1, human Claudin18.2 (CLDN18.2) on the …; experiment: cell ELISA on CHO-K1-CLDN18.2 cells; remark: listed apart in the source
Method: as §1

[12] = target: T1, human Claudin18.2 (CLDN18.2) on the …; experiment: flow cytometry (FACS) on CHO-K1-CLDN18.2 cells; remark: listed apart in the source
[13] = target: T1, human Claudin18.2 (CLDN18.2) on the …; experiment: cell ELISA on CHO-K1-CLDN18.2 cells; remark: listed apart in the source
Method: as §1

B1: anti-CLDN18.2 antibody 8C5.1 (antibody, V domains shown)
VH: EVQLVESGGGLVKPGGSLKLSCAASGFTFSNSAVSWVRQTPEKRLEWVATITSGVSYTYYLDSVRGRFTISRDNAKNTLYLQMSSLRSEDTAMYYCTRQFKGNALDYWGQGTSVTVSS
VL: DIVMTQSPSSLTVTAGEKVTMSCKSSQSLLNSGNQKNYLTWYQQKPGQPPKLLIYWASTRESGVPDRFTGSGSGTDFTLTINNFQAEDLAVYYCQNDYFYPLTFGAGTKLELK
notes: Murine monoclonal antibody purified from hybridoma LT020 supernatant on protein A; also called monoclonal antibody secreted by hybridoma cell line LT020
OD (450 nm) [1]: 1.79 OD
OD (450 nm) [2]: 1.63 OD
EC50 [3]: 0.153 nM
OD (450 nm) [4]: 1.07 OD
OD (450 nm) [5]: 1.61 OD
OD (450 nm) [6]: 0.086 OD
OD (450 nm) [7]: 0.344 OD
OD (450 nm) [8]: 1.42 OD
EC50 [9]: 0.214 µg/mL
OD (450 nm) [10]: 0.697 OD

B3: humanized anti-human CLDN18.2 antibody 8C5.1H2L2 (antibody, human IgG1, kappa, V domains shown)
VH: EVQLVESGGGLVKPGGSLRLSCAASGFTFSNSAVSWVRQAPGKGLEWVSTITSGVSYTYYADSVKGRFTISRDNAKNSLYLQMNSLRAEDTAVYYCTRQFKGNALDYWGQGTSVTVSS
VL: DIVMTQSPSSLSVSPGERVTISCKSSQSLLNSGNQKNYLTWYQQKPGQPPKLLIYWASTRESGVPDRFSGSGSGTDFTLTISSFQAEDVAVYYCQNDYFYPLTFGAGTKLELKR
EC50 [11]: 0.094 nM
EC50 [12]: 0.234 µg/mL

B5: humanized anti-human CLDN18.2 antibody 8C5.1H1L1 (antibody, human IgG1, kappa, V domains shown)
VH: B3 VH with G44R, S49A, A61L, K65R
VL: B3 VL with I21M, S82N
EC50 [11]: 0.054 nM
EC50 [12]: 0.216 µg/mL

B7: humanized anti-human CLDN18.2 antibody 8C5.1H2L1 (antibody, human IgG1, kappa, V domains shown)
VH: B3 VH
VL: B3 VL with I21M, S82N
EC50 [11]: 0.091 nM
EC50 [12]: 0.267 µg/mL

B9: humanized anti-human CLDN18.2 antibody 8C5.1H1L2 (antibody, human IgG1, kappa, V domains shown)
VH: B3 VH with G44R, S49A, A61L, K65R
VL: B3 VL
EC50 [11]: 0.108 nM
EC50 [12]: 0.242 µg/mL

The next lines start with the values.

EC50 [11]: 0.153 nM
EC50 [3]: 0.201 nM
EC50 [12]: 0.358 µg/mL
EC50 [13]: 0.182 nM
EC50 [9]: 0.687 µg/mL
B2: positive control antibody IMAB362 (antibody, human IgG1, kappa, V domains shown)
VH: QVQLQQPGAELVRPGASVKLSCKASGYTFTSYWINWVKQRPGQGLEWIGNIYPSDSYTNYNQKFKDKATLTVDKSSSTAYMQLSSPTSEDSAVYYCTRSWRGNSFDYWGQGTTLTVSS
VL: DIVMTQSPSSLTVTAGEKVTMSCKSSQSLLNSGNQKNYLTWYQQKPGQPPKLLIYWASTRESGVPDRFTGSGSGTDFTLTISSVQAEDLAVYYCQNDYSYPFTFGSGTKLEIKR
notes: Human-murine chimeric antibody; produced by Akeso Biopharma Inc; also called Claudiximab; zolbetuximab

EC50 [12]: 0.281 µg/mL
B4: humanized anti-human CLDN18.2 antibody 8C5.1H3L3 (antibody, human IgG1, kappa, V domains shown)
VH: B3 VH with T50S
VL: B3 VL with T40A, F84L

EC50 [12]: 0.213 µg/mL
EC50 [13]: 0.103 nM
B6: humanized anti-human CLDN18.2 antibody 8C5.1H3L2 (antibody, human IgG1, kappa, V domains shown)
VH: B3 VH with T50S
VL: B3 VL

EC50 [12]: 0.243 µg/mL
EC50 [13]: 0.081 nM
B8: humanized anti-human CLDN18.2 antibody 8C5.1H2L3 (antibody, human IgG1, kappa, V domains shown)
VH: B3 VH
VL: B3 VL with T40A, F84L
